Positions count from the first letter of the chain named. Numbers in names are those of the source.
T1: PUF4 RNA-binding domain (Saccharomyces cerevisiae, UniProt P25339 537-888)
T1 sequence: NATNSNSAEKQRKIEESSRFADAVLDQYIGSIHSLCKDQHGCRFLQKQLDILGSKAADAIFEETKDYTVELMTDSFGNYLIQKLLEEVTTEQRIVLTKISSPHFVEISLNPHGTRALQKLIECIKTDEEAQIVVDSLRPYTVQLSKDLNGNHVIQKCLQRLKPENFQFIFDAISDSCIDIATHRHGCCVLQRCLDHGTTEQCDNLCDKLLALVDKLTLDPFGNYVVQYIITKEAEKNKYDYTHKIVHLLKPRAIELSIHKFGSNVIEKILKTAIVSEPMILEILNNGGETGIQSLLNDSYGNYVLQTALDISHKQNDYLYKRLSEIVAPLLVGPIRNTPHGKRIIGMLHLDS

B1: Id_ii_S2_P4E.3_K4.2_C4.2_[C-2G]_H4.2_A4.1_F4.1_T4.2_[G10C] (ssRNA)
RNA: UUUGAUUAAUAUGAUAUCGUUCUUUCUGUUAUAUAUUACUUUCUUUCUCGAUAUCAUAUUAAUCUUU
B2: Id_ii_S2_P4E.3_K4.2_C4.2_[C-2T]_[T-1G]_H4.2_A4.1_F4.1_T4.2_[G10A]_[T11C] (ssRNA)
RNA: B1 RNA with G28U, U29G, C39A, U40C
B3: Id_ii_S2_P4E.3_K4.2_C4.2_[C-2T]_[T-1A]_H4.2_A4.1_F4.1_T4.2_[G10T] (ssRNA)
RNA: B1 RNA with G28U, U29A, C39U
B4: Id_ii_S2_P4E.3_K4.2_C4.2_[C-2A]_[T-1C]_H4.2_A4.1_F4.1_T4.2_[G10T] (ssRNA)
RNA: B1 RNA with G28A, U29C, C39U
B5: Id_ii_S2_P4E.3_K4.2_C4.2_[C-2T]_[T-1C]_H4.2_A4.1_F4.1_T4.2_[G10T]_[T11A] (ssRNA)
RNA: B1 RNA with G28U, U29C, C39U, U40A
B6: Id_ii_S2_P4E.3_K4.2_C4.2_[C-2T]_[T-1C]_H4.2_A4.1_F4.1_T4.2_[G10C]_[T11C] (ssRNA)
RNA: B1 RNA with G28U, U29C, U40C
B7: Id_ii_S2_P4E.3_K4.2_C4.2_[C-2T]_[T-1C]_H4.2_A4.1_F4.1_T4.2_[G10A] (ssRNA)
RNA: B1 RNA with G28U, U29C, C39A
B8: Id_ii_S2_P4E.3_K4.2_C4.2_[C-2T]_[T-1C]_H4.2_A4.1_F4.1_T4.2_[G10A]_[T11C] (ssRNA)
RNA: B1 RNA with G28U, U29C, C39A, U40C
B9: Id_ii_S2_P4E.3_K4.2_C4.2_[C-2G]_H4.2_A4.1_F4.1_T4.2_[G10T] (ssRNA)
RNA: B1 RNA with C39U
B10: Id_ii_S2_P4E.3_K4.2_C4.2_[C-2A]_[T-1C]_H4.2_A4.1_F4.1_T4.2_[G10A] (ssRNA)
RNA: B1 RNA with G28A, U29C, C39A
B11: Id_ii_S2_P4E.3_K4.2_C4.2_[C-2T]_H4.2_A4.1_F4.1_T4.2_[G10T]_[T11C] (ssRNA)
RNA: B1 RNA with G28U, C39U, U40C
B12: Id_ii_S2_P4E.3_K4.2_C4.2_[C-2T]_[T-1G]_H4.2_A4.1_F4.1_T4.2 (ssRNA)
RNA: B1 RNA with G28U, U29G, C39G
B13: Id_ii_S2_P4E.3_K4.2_C4.2_[C-2T]_[T-1C]_H4.2_A4.1_F4.1_T4.2_[G10A]_[T11A] (ssRNA)
RNA: B1 RNA with G28U, U29C, C39A, U40A
B14: Id_ii_S2_P4E.3_K4.2_C4.2_[C-2T]_H4.2_A4.1_F4.1_T4.2_[G10T]_[T11A] (ssRNA)
RNA: B1 RNA with G28U, C39U, U40A
B15: Id_ii_S2_P4E.3_K4.2_C4.2_[C-2T]_H4.2_A4.1_F4.1_T4.2_[G10A] (ssRNA)
RNA: B1 RNA with G28U, C39A
B16: Id_ii_S2_P4E.3_K4.2_C4.2_[C-2G]_[T-1C]_H4.2_A4.1_F4.1_T4.2_[G10T]_[T11G] (ssRNA)
RNA: B1 RNA with U29C, C39U, U40G
B17: Id_ii_S2_P4E.3_K4.2_C4.2_[C-2A]_[T-1C]_H4.2_A4.1_F4.1_T4.2_[G10A]_[T11A] (ssRNA)
RNA: B1 RNA with G28A, U29C, C39A, U40A
B18: Id_ii_S2_P4E.3_K4.2_C4.2_[C-2G]_H4.2_A4.1_F4.1_T4.2_[G10T]_[T11A] (ssRNA)
RNA: B1 RNA with C39U, U40A
B19: Id_ii_S2_P4E.3_K4.2_C4.2_[C-2A]_[T-1C]_H4.2_A4.1_F4.1_T4.2_[G10C] (ssRNA)
RNA: B1 RNA with G28A, U29C
B20: Id_ii_S2_P4E.3_K4.2_C4.2_[C-2T]_H4.2_A4.1_F4.1_T4.2_[G10C]_[T11A] (ssRNA)
RNA: B1 RNA with G28U, U40A
B21: Id_ii_S2_P4E.3_K4.2_C4.2_[C-2T]_H4.2_A4.1_F4.1_T4.2_[G10C]_[T11C] (ssRNA)
RNA: B1 RNA with G28U, U40C
B22: Id_ii_S2_P4E.3_K4.2_C4.2_[C-2A]_[T-1G]_H4.2_A4.1_F4.1_T4.2_[G10T]_[T11C] (ssRNA)
RNA: B1 RNA with G28A, U29G, C39U, U40C
B23: Id_ii_S2_P4E.3_K4.2_C4.2_[C-2G]_H4.2_A4.1_F4.1_T4.2_[G10A]_[T11A] (ssRNA)
RNA: B1 RNA with C39A, U40A

Biological target: T1, PUF4 RNA-binding domain
Test: Mg; RNA-MaP; 20 mM Na-HEPES pH 7.4, 30 mM KOAc, 0.75 mM MgCl2, 0.1% Tween-20, 5% glycerol, 0.1 mg/mL BSA, 2 mM DTT; 25 C; 0.0125-409.6 nM protein
Settings: tags: N-His6-TEV cleaved; C-SNAP kept, Cy3B-labelled; label: tethered on chip by stalled RNA polymerase

Binder	Kd [nM]
B1	26.9
B2	4.44
B3	14.9
B4	7.44
B5	13.5
B6	8.5
B7	8.89
B8	8.95
B9	7.68
B10	14.7
B11	7.36
B12	1.86
B13	18.5
B14	23.8
B15	17.3
B16	29.1
B17	21.1
B18	53.5
B19	9.33
B20	8.41
B21	8.62
B22	284
B23	13.7
UCUCUUUAUAUUAUUAUCUCUU (ssRNA) [Ia_S1_P5E.1_K5.1_C5.1_H5.1_[G2A]_A5.1_F5.1_T5.1]	367
UCUCUUUGCAUUAUUCUCUCUU (ssRNA) [Ib_S1_P5E.1_K5.1_C5.1_H5.1_[T3C]_A5.1_F5.1_[A10C]_T5.1]	> 2300
UCUCUUUGUGUUAUUGUCUCUU (ssRNA) [Ib_S1_P5E.1_K5.1_C5.1_H5.1_[A4G]_A5.1_F5.1_[A10G]_T5.1]	382
UCUCUUUAUAUUAUUCUCUCUU (ssRNA) [Ib_S1_P5E.1_K5.1_C5.1_H5.1_[G2A]_A5.1_F5.1_[A10C]_T5.1]	462
UCUCUUUUUAUUAUUUUCUCUU (ssRNA) [Ib_S1_P5E.1_K5.1_C5.1_H5.1_[G2T]_A5.1_F5.1_[A10T]_T5.1]	> 2300
UCUCUUUAUAUUAUUUUCUCUU (ssRNA) [Ib_S1_P5E.1_K5.1_C5.1_H5.1_[G2A]_A5.1_F5.1_[A10T]_T5.1]	473
